Here are results for 28 sequences from the domain aggregation screens of Martell et al. (2025).

The data set is described as follows: soluble fraction after stress (log2 fold change); higher = more stays soluble; pooled small domains, quantitative proteomics. The note with it: stress: 50 degC. The method, boiled down: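 Pooled custom libraries of small protein domains were each held under stress at 50°C. The read-out, high-throughput quantitative proteomics, tracked how much of each protein stayed soluble. This is reported as a base-two log fold change used to indicate aggregation propensity. Higher values mean more protein remains in solution.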
With “HMVLVSNYGEVVRKARERKGLDHGSLAMKISEKKSIITSVESGNMKPNEKLIKKLENFLNINLM”, the “soluble fraction (log2)” value was -1.33.
On to “HMSFEITGDELILRFVKDKGGATTEQIRKHWEASNRGGKSDNNLTNLVKSGKLLRSKDPNGPGSLYTAS”, for which the “soluble fraction (log2)” value is -0.231.
The same measure for “HMDVAAQITYAMRTMGVAPIPRNYELFYEAYIGSNPALTKELAALGSKATQEELDELGQQYF”: -1.93.
The figure for “HMSNAIDDAVEKVISENLDLAKERGLQSMGPLMGLVMKELGGTADGKAVSEALRRKISEISD” is 0.293; for “HMKEPPTLEEIKNYFASKLSTELESEKFFNYFESNGWLVGGKTPMKNWQSAANNWLINMSKFN” it is -0.47.
Take “HMVEDPADNQKAADAVIKKISEIGEVTESSENLIKEARASYDALTDNQKELVTNYDVLVQAEAQLENIKD”: the “soluble fraction (log2)” value is -0.0306.
The figure for “HMEDQVITQFNMRLIRAVMPQGAPMIVVYEDPKDYPGLFVARLFDGRKSTHLIALADTLEDI” is -0.123; for “HMIAAVIAQVANTNERIILEKRYLSFKSWDEIAVEMRISPRWAYTLHERALKAVDQVLSKQNNE” it is -4.07; for “HMERGEFQKLGRATLEQTLARAGKTLAEVSLKAMLETFAFAAEEDLYEALGRGRVSAAKVGETLFPALKGR” it is -0.0985.
The same measure for “HMKNESLMLPRDIDYSRVHGLSNEAIQKLQDALPQSLGQASRIEGITPATLSLLLLYLKKNNKRI”: -0.00929; for “HMSISSIDFENLKSDELSDAQITQIYRQAQEQGLSIDELSSLAIARGMSPTEVAKLRSRFNSIP”: 0.167; for “HMSADDLVSRTQAIVAELKDLEGPLLPILHSVQEAFGHVPDEVKPVIAEALNLSRAEVHGVVSFYHDFRAH”: -0.112.
The figure for “HMQKRDQKKRANMLDSLKVGTRIVTIGGIFGEIAKIKDDRIRIKVAEDVEIWIRRAAVGTVIT” is -0.207; for “HMTLYQIGDKVVHPMHGAGVIDSVVQRKVSGQVQEFYLLKLSVGNMVVMVPTDNTGEIGMRP” it is -1.01.
For “HMQPAALEAQVIKLVRLHAPIKARQLATILANEFGQHVDRSTVNSLLYQLRAQGKVAQNAAYQWSLT”, the “soluble fraction (log2)” value is -0.65.
Consider “HMATVPNVVGLSEEKAKSRLANNGLNVSVTTEEVSDKSKDGIVSSQTSEGDTVKQGATITITVGKYVEK”, for which the “soluble fraction (log2)” value amounted to 0.14.
As for “HMANKLSEQIYGSILKDIVNGVYAPREFISEAQIAAKYGVSKAPVKEAMHILASEGFLLSYPKRGYMVN”, the “soluble fraction (log2)” value is -0.347.
The same measure for “HMDVTSLDMLRFLMDQHGLRQQDLSELGSQGVVSEILAGKRELNLRHIGALARRFKVPPEVFLPA”: -0.631.
The figure for “HMYRYTTFKVKEADTLLPFIQKSLNGISHNRAKAILTGGGVLVDKKITRAYDFALRPGMTVEISKSKP” is -0.103.
The same measure for “HMSAPNPGQMHSWTDTQGRTLQATFIKADATTVTLNWNGRIVPIPLANLNAASQKLARELASAS”: 0.181; for “HMGQAVTVPELKGLSFDEAIEKLDDAGLKYEVVDSNYVEDMKPGTVFETLPEAGSRVKPRRIVFLTINAF”: -0.319; for “HMGPEQLIGKTGIAASELAPRGEVKIEGQIWRAETVGDHVKQGEPVEVVSREGLILRVKPKHPQTRG”: 0.214.
In the case of “HMTNKSKQRRNEILRASQELFNKKGFHDTSINDIMRRVGAAKGVFYYYFETKDQILDTLIEQHIA”, the “soluble fraction (log2)” value is -0.907.
The same measure for “HMSAPAMTLDSIRSLLNDRDPWVVTQTVEWLVGLGPQVKTILETLTLESSDAARQAQNALDRINVRNYP”: -0.155.
The figure for “HMFADLNPDENYGQVYIRTNTIDNLYQTLLDNKTRIHPNGLLELKPWGQKEFSILDPDKNLLTFGES” is 0.0797; for “HMITTEEVLNRIRKKVDHPATIRELQKALSIADDDRHRFRRRIRTLVASGALVRIRGNRYGLPSK” it is -0.275; for “HMSEPQEISYSDFIEQVNRNEIRQVEFDGQHEYLTVIRKDTSRFKVIIPAPDPRLLDDLMEHDVEIVGKE” it is 0.0895.
The same measure for “HMSTVTGLINYLSSGLIKGVGEATARKLVDHFGLDVLDIIQFNPQRLLEVDGIGEARAEMIASSFSEQK”: -0.399.
